Experiments:
[1] = test system: CO/N=C(\C(=O)N[C@@H]1C(=O)N2C(C(=O)O)=C(COC(C)=O)CS[C@H]12)c1csc(N)n1; test: purified protein; assay type: biochemical, Klebsiella pneumoniae; conditions: Zn2+
[2] = test system: CC1(C)S[C@@H]2[C@H](NC(=O)Cc3ccccc3)C(=O)N2[C@H]1C(=O)O; test: purified protein; assay type: biochemical, Klebsiella pneumoniae; conditions: Zn2+
[3] = test system: CC(C)(O/N=C(\C(=O)N[C@@H]1C(=O)N2C(C(=O)[O-])=C(C[n+]3ccccc3)CS[C@H]12)c1csc(N)n1)C(=O)O; test: purified protein; assay type: biochemical, Klebsiella pneumoniae; conditions: Zn2+
[4] = test system: CO[C@@]1(NC(=O)Cc2cccs2)C(=O)N2C(C(=O)O)=C(COC(N)=O)CS[C@@H]21; test: purified protein; assay type: biochemical, Klebsiella pneumoniae; conditions: Zn2+
[5] = test system: CCN1CCN(C(=O)N[C@@H](C(=O)N[C@@H]2C(=O)N3[C@@H]2SC(C)(C)[C@@H]3C(=O)O)c2ccccc2)C(=O)C1=O; test: purified protein; assay type: biochemical, Klebsiella pneumoniae; conditions: Zn2+
[6] = test system: C[C@@H](O)[C@H]1C(=O)N2C(C(=O)O)=C(S[C@@H]3CN[C@H](C(=O)N(C)C)C3)[C@H](C)[C@H]12; test: purified protein; assay type: biochemical, Klebsiella pneumoniae; conditions: Zn2+
[7] = test system: C[C@@H](O)[C@H]1C(=O)N2C(C(=O)[O-])=C(SC3Cn4cnc[n+]4C3)[C@H](C)[C@H]12; test: purified protein; assay type: biochemical, Klebsiella pneumoniae; conditions: Zn2+
[8] = biological target: T1, New Delhi metallo-β-lactamase-1 (NDM-1) (Klebsiella pneumoniae, UniProt C7C422); test: initial hydrolysis rate of […] substrate by purified enzyme at varied ZnSO4; assay type: biochemical
T1 construct: gene blaNDM-1; native (no fusion or tag) NDM-1
T1 sequence (C7C422 29-270 limits assumed): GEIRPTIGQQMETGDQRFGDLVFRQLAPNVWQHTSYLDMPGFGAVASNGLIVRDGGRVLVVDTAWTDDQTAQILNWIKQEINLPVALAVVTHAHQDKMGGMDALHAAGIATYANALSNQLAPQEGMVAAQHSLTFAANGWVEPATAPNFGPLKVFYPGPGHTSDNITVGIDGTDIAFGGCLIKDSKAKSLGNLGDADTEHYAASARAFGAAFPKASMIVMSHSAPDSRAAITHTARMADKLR

What does the source list for “New Delhi metallo-β-lactamase-1 (NDM-1) (Klebsiella pneumoniae)”?
Km [1]: 43 µM; kcat [1]: 31.5 s⁻¹; kcat/Km [1]: 740000 M⁻¹ s⁻¹; Km [2]: 103 µM; kcat [2]: 27.5 s⁻¹; kcat/Km [2]: 270000 M⁻¹ s⁻¹; Km [3]: 74 µM; kcat [3]: 60.9 s⁻¹; kcat/Km [3]: 830000 M⁻¹ s⁻¹; Km [4]: 63 µM; kcat [4]: 38.3 s⁻¹; kcat/Km [4]: 610000 M⁻¹ s⁻¹; Km [5]: 69 µM; kcat [5]: 8.3 s⁻¹; kcat/Km [5]: 120000 M⁻¹ s⁻¹; Km [6]: 42 µM; kcat [6]: 30.8 s⁻¹; kcat/Km [6]: 730000 M⁻¹ s⁻¹; Km [7]: 155 µM; kcat [7]: 106 s⁻¹; kcat/Km [7]: 680000 M⁻¹ s⁻¹

`CO/N=C(\C(=O)N[C@@H]1C(=O)N2C(C(=O)[O-])=C(C[N+]3(C)CCCC3)CS[C@H]12)c1csc(N)n1` [cefepime] was tested. Which “initial hydrolysis rate of 0.5 mM substrate by purified enzyme at varied ZnSO4” value [8] did it give?
The value was “The hydrolysis rates of cephem (ceftazidime and cefepime) were found to be very sensitive to the ZnSO4 concentration”.

Source: PMC3625156, “Biochemical Characteristics of New Delhi Metallo-β-Lactamase-1 Show Unexpected Difference to Other MBLs” (PLoS ONE, 2013)
